PMC3517063 (Proteomics, 2012)

Target: the molecule itself
Experiment: cross-linking

Row | Protein | binding result
1 | proteasomal 20S core particle subunit α1 with His6 tag (α1-His6) (natural protein, Haloferax volcanii, UniProt Q9V2V6 1-252, looked up) MQGQAQQQAYDRGITIFSPDGRLYQVEYAREAVKRGTASIGVRTPEGVVLAADKRSRSPLMEPTSVEKIHKADDHIGIASAGHVADARQLIDFARRQSQVNRLRYGEPIGIETLTKEVTDHIQQYTQVGGARPFGVALLIGGVENGTPRLYETDPSGTPYEWKAVSIGADRGDHQEHLEENFRDDLTLDEGIELALEAIASTSDEGTAPDGVDVATVSAETERFVELSNDEIESYLEANDLLATEDDEQTEE | binds
2 | proteasomal 20S core particle subunit α2 with C-terminal His6 tag (α2-His6) (natural protein, Haloferax volcanii, UniProt Q9V2V5 1-249, looked up) MNRNDKQAYDRGTSLFSPDGRIYQVEYAREAVKRGAPVLGVRTADGVVLAALRSTPSELMEAESIEKLHKLDDALGAATAGHVADARKLVDFARTTAQREHLRYGEPIGVETLTKTITDNIQESTQSGGTRPYGASLLIGGVENGSGRLFATDPSGTPQEWKAVAIGGHREDVQAALEDGYAEDLSLEDGLALAVEALVAADEEIESDELNLVTVSEAGYEIVDEETIAELFADATADDESDETDEREE | binds
